Results taken from PMC3793637 (Nature, 2013).

B1: IR593.αCT (domain or fragment, human, UniProt P06213 28-620, looked up)
chain: HLYPGEVCPGMDIRNNLTRLHELENCSVIEGHLQILLMFKTRPEDFRDLSFPKLIMITDYLLLFRVYGLESLKDLFPNLTVIRGSRLFFNYALVIFEMVHLKELGLYNLMNITRGSVRIEKNNELCYLATIDWSRILDSVEDNYIVLNKDDNEECGDICPGTAKGKTNCPATVINGQFVERCWTHSHCQKVCPTICKSHGCTAEGLCCHSECLGNCSQPDDPTKCVACRNFYLDGRCVETCPPPYYHFQDWRCVNFSFCQDLHHKCKNSRRQGCHQYVIHNNKCIPECPSGYTMNSSNLLCTPCLGPCPKVCHLLEGEKTIDSVTSAQELRGCTVINGSLIINIRGGNNLAAELEANLGLIEEISGYLKIRRSYALVSLSFFRKLRLIRGETLEIGNYSFYALDNQNLRQLWDWSKHNLTITQGKLFFHYNPKLCLSEIHKMEEVSGTKGRQERNDIALKTNGDQASCENELLKFSYIRTSFDKILLRWEPYWPPDFRDLLGFMLFYKEAPYQNVTEFDGQDACGSNSWTVVDIDPPLRSNDPKSQNHPGWLMRGLKPWTQYAIFVKTLVTFSDERRTYGAKSDIIYVQTDATTFEDYLHNVVFVPRPS

Experiments:
[1] = molecular target: insulin receptor site 2 (Homo sapiens) (UniProt P06213); settings: cited from earlier work
Chain of insulin receptor site 2 (Homo sapiens) (P06213 763-956): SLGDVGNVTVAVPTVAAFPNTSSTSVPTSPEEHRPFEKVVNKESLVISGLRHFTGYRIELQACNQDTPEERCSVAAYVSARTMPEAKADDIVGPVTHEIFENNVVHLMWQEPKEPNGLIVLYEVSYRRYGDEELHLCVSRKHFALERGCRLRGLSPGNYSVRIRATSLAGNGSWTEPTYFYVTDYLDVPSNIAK

[2] = molecular target: insulin receptor site 1 (Homo sapiens) (UniProt P06213); settings: cited from earlier work
Chain of insulin receptor site 1 (Homo sapiens) (P06213 763-956): as above

crystal structure = molecular target: the molecule itself; assay: crystal structure
SEC = molecular target: the molecule itself; assay: SEC

Molecule	Kd [1] [nM]	Kd [2] [nM]	stoichiometry N (crystal structure)	stoichiometry N (SEC)
insulin (from UniProt P01308)	400	6.4	–	–
B1	–	–	4	2
